{"source": "paper PMC4269414", "about": "“Stubborn Contaminants: Influence of Detergents on the Purity of the Multidrug ABC Transporter BmrA” (PLoS ONE, 2014)", "binders": {"B1": {"name": "E504Q BmrA mutant, untagged, cleaved by trypsin (starts at Leu12) (domain or fragment, Bacillus subtilis, UniProt O06967 12-589, looked up)", "chain": "LKPFFALVRRTNPSYGKLAFALALSVVTTLVSLLIPLLTKQLVDGFSMSNLSGTQIGLIALVFFVQAGLSAYATYALNYNGQKIISGLRELLWKKLIKLPVSYFDTNASGETVSRVTNDTMVVKELITTHISGFITGIISVIGSLTILFIMNWKLTLLVLVVVPLAALILVPIGRKMFSISRETQDETARFTGLLNQILPEIRLVKASNAEDVEYGRGKMGISSLFKLGVREAKVQSLVGPLISLVLMAALVAVIGYGGMQVSSGELTAGALVAFILYLFQIIMPMGQITTFFTQLQKSIGATERMIEILAEEEEDTVTGKQIENAHLPIQLDRVSFGYKPDQLILKEVSAVIEAGKVTAIVGPSGGGKTTLFKLLERFYSPTAGTIRLGDEPVDTYSLESWREHIGYVSQESPLMSGTIRENICYGLERDVTDAEIEKAAEMAYALNFIKELPNQFDTEVGERGIMLSGGQRQRIAIARALLRNPSILMLDQATSSLDSQSEKSVQQALEVLMEGRTTIVIAHRLSTVVDADQLLFVEKGEITGRGTHHELMASHGLYRDFAEQQLKMNADLENKAG", "notes": "BmrA, Bacillus subtilis, E504Q mutant, cut by trypsin between Lys11 and Leu12; The His6 tag is lost together with residues 1-11; also called untagged BmrA; untagged, cleaved, monomer"}, "B2": {"name": "BmrA (Bacillus multidrug resistance ATP), 6-histidine N-terminal tag (natural protein, Bacillus subtilis, UniProt O06967 1-589, looked up)", "chain": "MPTKKQKSKSKLKPFFALVRRTNPSYGKLAFALALSVVTTLVSLLIPLLTKQLVDGFSMSNLSGTQIGLIALVFFVQAGLSAYATYALNYNGQKIISGLRELLWKKLIKLPVSYFDTNASGETVSRVTNDTMVVKELITTHISGFITGIISVIGSLTILFIMNWKLTLLVLVVVPLAALILVPIGRKMFSISRETQDETARFTGLLNQILPEIRLVKASNAEDVEYGRGKMGISSLFKLGVREAKVQSLVGPLISLVLMAALVAVIGYGGMQVSSGELTAGALVAFILYLFQIIMPMGQITTFFTQLQKSIGATERMIEILAEEEEDTVTGKQIENAHLPIQLDRVSFGYKPDQLILKEVSAVIEAGKVTAIVGPSGGGKTTLFKLLERFYSPTAGTIRLGDEPVDTYSLESWREHIGYVSQESPLMSGTIRENICYGLERDVTDAEIEKAAEMAYALNFIKELPNQFDTEVGERGIMLSGGQRQRIAIARALLRNPSILMLDEATSSLDSQSEKSVQQALEVLMEGRTTIVIAHRLSTVVDADQLLFVEKGEITGRGTHHELMASHGLYRDFAEQQLKMNADLENKAG", "notes": "also called multidrug ABC transporter BmrA; source: E. coli C41(DE3) membranes, solubilised and purified in detergent (Q-Sepharose and Ni column in FC12; or Ni-NTA and SEC in DDM, UDM, UTM, LMNG, LDAO or FC12); not shown: His6, N-terminal, kept"}, "B3": {"name": "Outer membrane protein F (OmpF) (natural protein, E. coli (endogenous in C41(DE3)), UniProt P02931 23-362, looked up)", "chain": "AEIYNKDGNKVDLYGKAVGLHYFSKGNGENSYGGNGDMTYARLGFKGETQINSDLTGYGQWEYNFQGNNSEGADAQTGNKTRLAFAGLKYADVGSFDYGRNYGVVYDALGYTDMLPEFGGDTAYSDDFFVGRVGGVATYRNSNFFGLVDGLNFAVQYLGKNERDTARRSNGDGVGGSISYEYEGFGIVGAYGAADRTNLQEAQPLGNGKKAEQWATGLKYDANNIYLAANYGETRNATPITNKFTNTSGFANKTQDVLLVAQYQFDFGLRPSIAYTKSKAKDVEGIGDVDLVNYFEVGATYYFNKNMSTYVDYIINQIDSDNKLGVGSDDTVAVGIVYQF", "notes": "Outer membrane protein F of E. coli, identified by mass spectrometry as P02931; structure deposited as PDB 4JFB, solved with a trimer of PDB 2ZFG as search model; The expression strain is C41(DE3), whose OmpF may differ from that entry; also called outer membrane porin OmpF; source: endogenous, E. coli C41(DE3); co-extracted and co-purified with BmrA in FC12, crystallised from that sample"}}, "key": {"[1]": {"biological_target": "T1, E504Q BmrA mutant, full-length, His6-tagged (uncleaved) (Bacillus subtilis, UniProt O06967 1-589, E504Q)", "T1 construct": "BmrA, Bacillus subtilis, E504Q mutant; the part of the sample left uncut after a short trypsin digestion with 2 mM ATP and MgCl2; also called tagged, uncleaved monomer; source: E. coli membranes, solubilised with DDM, purified (Ni2+ high trap chelating column, PD-10 desalting); not shown: His6, N-terminal, kept", "T1 sequence (looked up)": "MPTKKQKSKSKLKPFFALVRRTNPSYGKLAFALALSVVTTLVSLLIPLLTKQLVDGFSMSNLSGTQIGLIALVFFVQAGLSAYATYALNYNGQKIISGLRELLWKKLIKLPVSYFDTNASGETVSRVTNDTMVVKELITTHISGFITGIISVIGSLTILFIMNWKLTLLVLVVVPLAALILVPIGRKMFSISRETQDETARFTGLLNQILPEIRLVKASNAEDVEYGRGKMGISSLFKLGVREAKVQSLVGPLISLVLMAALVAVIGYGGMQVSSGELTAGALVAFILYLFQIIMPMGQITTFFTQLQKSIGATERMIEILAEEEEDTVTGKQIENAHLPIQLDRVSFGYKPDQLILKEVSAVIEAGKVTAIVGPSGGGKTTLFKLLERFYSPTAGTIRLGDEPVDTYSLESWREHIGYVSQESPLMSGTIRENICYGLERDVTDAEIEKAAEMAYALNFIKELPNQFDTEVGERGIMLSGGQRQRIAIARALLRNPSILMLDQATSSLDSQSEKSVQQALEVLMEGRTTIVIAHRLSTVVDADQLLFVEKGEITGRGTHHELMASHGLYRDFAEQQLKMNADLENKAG", "assay": "pull-down; second Ni2+ High Trap chelating column in DDM after partial trypsin cleavage of the N-terminal His6 tag; flow-through against the peak eluted with 250 mM imidazole, fractions on SDS-PAGE", "conditions": "both partners purified"}, "[2]": {"biological_target": "the molecule itself", "assay": "SEC; HiLoad 16/60 Superdex 200 PG, 25 mM Tris-HCl pH 8.0, 150 mM NaCl with detergent (DDM, UDM, UTM, LMNG, LDAO or FC12), 4°C; elution volume compared with that expected for dimers in detergent micelles"}, "[3]": {"biological_target": "the molecule itself", "assay": "crystal structure; OmpF crystallised from the FC12-purified BmrA sample with 5 mM ADP; PEG 1500, 2-methyl-2,4-pentanediol, 0.1 M Tris-HCl pH 8.0, 19°C; space group C2; molecular replacement with an OmpF trimer"}}, "data": [{"binder": "B1", "values": [{"measurement": "binding result", "setting": "[1]", "result": "binds"}]}, {"binder": "B2", "values": [{"measurement": "stoichiometry N", "setting": "[2]", "result": 2}]}, {"binder": "B3", "values": [{"measurement": "stoichiometry N", "setting": "[3]", "result": 3}]}]}
